Measurements: patent US20260132208A1 (DOMAIN THERAPEUTICS, published 2026)
Values joined by “and” are separate entries in the source; they are usually repeats but may differ in a detail not shown here. Equal values may be shown once. One block for each binder: values may come before it.

Tests used:
[1] = molecular target: T1, human CCR8 (human, UniProt P51685 1-355); assay: cell-based or functional assay
[2] = molecular target: T1, human CCR8; assay: cell-based or functional assay; remark: listed apart in the source
[3] = molecular target: T1, human CCR8; assay: cell-based or functional assay; remark: listed apart in the source
[4] = molecular target: T1, human CCR8; assay: flow cytometry, hCCR8-transfected CHO-K1 cells
Method: Briefly, 1.10⁵ cells per well in a 96 well plate were incubated with a dilution of unconjugated anti-CCR8 mAb at 10 μg/mL then diluted at 1/3.33, 4 dilution points (during 30 min at 4° C.). In human activated T cells model, prior to mAb incubation, cells were first incubated with 200 nM of hCCL1 (R&D Systems, Minneapolis, MN, USA) or buffer PBS (Invitrogen by Thermofisher Scientific, Illkirch-Graffenstaden, France) supplemented by 2% Fetal Bovine Serum (Invitrogen by Thermofisher Scientific, Illkirch-Graffenstaden, France) and 2 mM EDTA (Invitrogen by Thermofisher Scientific, Illkirch-Graffenstaden, France) during 1 hour at 4° C. To determine EC50 value, 8 concentrations of anti-CCR8 mAb were tested. Unbound antibodies were washed away with PBS (Invitrogen by Thermofisher Scientific, Illkirch-Graffenstaden, France) supplemented by 2% Fetal Bovine Serum (Invitrogen by Thermofisher Scientific, Illkirch-Graffenstaden, France) and 2 mM EDTA (Invitrogen by Thermofisher Scientific, Illkirch-Graffenstaden, France). Subsequently, cells are centrifuged (5 min at 400 g) and bound antibody is detected with F(ab′)2-Goat anti-Mouse IgG (H+L) Cross-Adsorbed Secondary Antibody, Alexa Fluor 488 (dilution 1/500) (Invitrogen by Thermofisher Scientific, Illkirch-Graffenstaden, France) or with F(ab′)₂-Goat anti-Human IgG Fc Secondary Antibody, PE (Invitrogen by Thermofisher Scientific, Illkirch-Graffenstaden, France) (dilution 1/1000) at 4° C. for 30 min. Detection reagent is washed away and cells are centrifuged (5 min at 400 g) and resuspended in 30 μL PBS. Bound detection antibody is quantified on a MacsQuant16 (Miltenyi, Gladbach, Germany) (B1 or B2 channel, 5000 events per acquisition). During the experiment, the respective isotype mAb controls (mouse IgG1, mouse IgG2a, mouse IgG2b, mouse IgG3 or human IgG1) (Biolegend, Amsterdam, The Netherlands) are included to exclude any unspecific binding events. EC50 values were determined via nonlinear fit “log (agonist) vs.response—Variable slope (four parameters)” function of Graphpad prism. EC50 values were not constantly determined in the same experiments.

[5] = molecular target: T1, human CCR8; assay: flow cytometry, inhibition of hCCL1-AF647 (10 nM) binding to hCCR8-CHO cells
Method: The hCCR8 transfected CHO cell line was dispatched at a density of 1.105 per well in a 96-well plate. Cells were incubated for 30 min at 4° C. with or without anti-CCR8 mAb tested at 10 μg/mL then diluted at 1/3. Unbound antibodies were washed away with PBS (Gibco, Villebon-sur-yvette, France) supplemented by 2% Fetal Bovine Serum (Invitrogen by Thermofisher Scientific, Illkirch-Graffenstaden, France) and 2 mM EDTA. […] After washing unbound ligands, CCL1 bound detection is quantified on a MacsQuant16 (Miltenyi, Gladbach, Germany) (R1 channel, 5 000 events per acquisition).
For IC₅₀ determination, a concentration response curve is performed using 8 concentrations of mAb. Curves are fitted and IC₅₀ of CCL1 binding blocking activity is calculated using the sigmoidal dose-response (variable slope) model on GraphPad Prism 9 (GraphPad Software, San Diego, CA, USA).

[6] = molecular target: T1, human CCR8; assay: cell-based or functional assay; remark: listed apart in the source
[7] = molecular target: T2, pm3 (Y17 sulfated; Y15 and Y16 not sulfated); assay: ELISA on coated peptide [cont.]
T2 construct: also called sulfated CCR8 N-terminal peptide pm3
T2 sequence (peptide, as listed by the source): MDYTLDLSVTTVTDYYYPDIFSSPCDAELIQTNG
Method: (§1) The specific binding properties of antibodies were evaluated by ELISA with coated CCR8 related peptides (500 ng/ml) in carbonate/bicarbonate buffer. Different peptides were used as described in Table 1 (see Example 1). Each anti-CCR8 mAb was tested at 1 μg/mL then diluted at 1/10. After an incubation at room temperature during 90 min, unbound mAbs were removed by washings. […] After washings, 3,3′,5,5′-tetramethylbenzidine (TMB) (Interchim, Montluçon, France) was added for 15 min. Then the optical density (OD) was determined by using a multiplate reader (Tecan, Lyon, France) and correlated with mAb reactivity on the panel of coated peptides.

[8] = molecular target: T3, pm5 (Y15 and Y17 sulfated; Y16 not sulfated); assay: ELISA on coated peptide [cont.]
T3 construct: also called sulfated CCR8 N-terminal peptide pm5
T3 sequence (peptide, as listed by the source): as above
Method: as §1

[9] = molecular target: T4, pm8 (Y15, Y16 and Y17 sulfated); assay: ELISA on coated peptide [cont.]
T4 construct: also called sulfated CCR8 N-terminal peptide pm8
T4 sequence (peptide, as listed by the source): as above
Method: as §1

[10] = molecular target: T5, pm6 (Y16 and Y17 sulfated; Y15 not sulfated); assay: ELISA on coated peptide [cont.]
T5 construct: also called sulfated CCR8 N-terminal peptide pm6
T5 sequence (peptide, as listed by the source): as above
Method: as §1

ADCC % max lysis, HUT78 targets, NK donor 3 [1]: 14% | ADCC % max lysis, HUT78 targets, NK donor 4 [1]: 15% | ADCC EC50, HUT78 targets, NK donor 3 [1]: 0.793 nM | ADCC EC50, HUT78 targets, NK donor 4 [1]: 1.52 nM
B1: anti-CCR8 mAb 1-33 (antibody, human IgG1, kappa)
heavy: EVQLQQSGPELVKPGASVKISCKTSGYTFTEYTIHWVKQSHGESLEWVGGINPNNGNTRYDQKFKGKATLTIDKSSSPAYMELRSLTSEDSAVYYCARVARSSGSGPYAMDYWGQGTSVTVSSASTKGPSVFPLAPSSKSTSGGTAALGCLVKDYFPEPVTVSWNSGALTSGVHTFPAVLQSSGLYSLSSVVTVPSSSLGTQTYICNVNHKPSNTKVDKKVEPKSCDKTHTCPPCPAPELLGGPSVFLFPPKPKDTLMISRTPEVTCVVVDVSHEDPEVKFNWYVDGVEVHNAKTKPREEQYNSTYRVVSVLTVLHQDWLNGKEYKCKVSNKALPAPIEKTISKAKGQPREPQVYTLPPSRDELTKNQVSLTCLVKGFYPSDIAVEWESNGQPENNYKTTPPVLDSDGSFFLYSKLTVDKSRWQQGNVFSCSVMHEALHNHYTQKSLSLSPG
light: DVVMTQTPLSLPVSLGDQASISCRCTQSLLHTNGDTYLHWYLQKPGQSPKLLIYKVSNRFSGVPDRFSGSGSGTDFTLKISRVEAEDLGVYFCSQSTHVPYTFGGGTKLEIKRTVAAPSVFIFPPSDEQLKSGTASVVCLLNNFYPREAKVQWKVDNALQSGNSQESVTEQDSKDSTYSLSSTLTLSKADYEKHKVYACEVTHQGLSSPVTKSFNRGEC

ADCC % max lysis, HUT78 targets, NK donor 3 [1]: 29% | ADCC % max lysis, HUT78 targets, NK donor 4 [1]: 29% | ADCC EC50, HUT78 targets, NK donor 3 [1]: 0.195 nM | ADCC EC50, HUT78 targets, NK donor 4 [1]: 0.282 nM
B2: anti-CCR8 mAb 1-35 (antibody, human IgG1, kappa)
heavy: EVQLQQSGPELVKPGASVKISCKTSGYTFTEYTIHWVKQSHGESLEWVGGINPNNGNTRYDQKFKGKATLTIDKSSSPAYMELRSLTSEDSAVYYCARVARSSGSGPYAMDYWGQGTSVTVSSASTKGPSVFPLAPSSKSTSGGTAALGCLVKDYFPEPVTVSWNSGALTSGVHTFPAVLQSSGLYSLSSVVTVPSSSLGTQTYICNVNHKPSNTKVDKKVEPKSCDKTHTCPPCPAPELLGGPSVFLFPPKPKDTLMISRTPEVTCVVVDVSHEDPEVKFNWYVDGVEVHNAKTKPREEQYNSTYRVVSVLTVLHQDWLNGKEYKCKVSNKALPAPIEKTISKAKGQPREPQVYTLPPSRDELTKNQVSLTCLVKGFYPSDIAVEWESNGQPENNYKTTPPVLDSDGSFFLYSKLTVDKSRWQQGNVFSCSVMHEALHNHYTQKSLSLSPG
light: B1 light
modifications: hypofucosylated (low fucosylated) Fc glycan

extrapolated top plateau of hCCL1 curve with 5 µg/mL mAb, protocol #3 [2]: 193000 % of hCCL1 (100 nM) | IC50 of CCL1-induced hCCR8 Gi2 signaling (BRET, HEK-293) [3]: 0.026 µg/mL and 0.172 nM | % positive cells [4]: 81.6% | MFI fold change to isotype ctrl [4]: 9.92 fold | IC50 [5]: 1.18 µg/mL and 7.92 nM | residual hCCL1 (100 nM) Gi2 response, protocol #2, mAb 0.08 µg/mL [6]: 99% | residual hCCL1 (100 nM) Gi2 response, protocol #2, mAb 0.4 µg/mL [6]: 83% | residual hCCL1 (100 nM) Gi2 response, protocol #2, mAb 10 µg/mL [6]: 56% | residual hCCL1 (100 nM) Gi2 response, protocol #3, mAb 0.05 µg/mL [6]: 116% | residual hCCL1 (100 nM) Gi2 response, protocol #3, mAb 0.5 µg/mL [6]: 90% | residual hCCL1 (100 nM) Gi2 response, protocol #3, mAb 5 µg/mL [6]: 45%
B3: anti-CCR8 mAb 1-17 (antibody, V domains shown)
VH: QVQLQQPGSELVRPGASVKLSCKASGYTFTSYWMHWVKQRPGQGLEWIGNIWPGSASTNYDEKFKNKATLTVDTSSSTAYMQLSSLTSEDSAVYYCIRGGKGAMDYWSQGTSVTVSS
VL: DVVMTQIPLSLPVSLGDQASISCRSSQSLENSYGNTYLNWYLQKPGQSPQLLIYRVSNRFSGVLDRFSGSGSGTDFTLKISRVEAEDLGVYFCLQVTHVPPTFGAGTKLELK
notes: Murine hybridoma mAb

extrapolated top plateau of hCCL1 curve with 5 µg/mL mAb, protocol #3 [2]: 855 % of hCCL1 (100 nM) | IC50 of CCL1-induced hCCR8 Gi2 signaling (BRET, HEK-293) [3]: 0.046 µg/mL and 0.306 nM | % positive cells [4]: 56.2% | MFI fold change to isotype ctrl [4]: 4.78 fold | binding result [7]: binds | binding result [8]: binds | binding result [9]: binds | binding result [10]: binds | IC50 [5]: ~0.6 µg/mL and 4.01 nM | residual hCCL1 (100 nM) Gi2 response, protocol #2, mAb 0.08 µg/mL [6]: 104% | residual hCCL1 (100 nM) Gi2 response, protocol #2, mAb 0.4 µg/mL [6]: 46% | residual hCCL1 (100 nM) Gi2 response, protocol #2, mAb 10 µg/mL [6]: 28% | residual hCCL1 (100 nM) Gi2 response, protocol #3, mAb 0.05 µg/mL [6]: 80% | residual hCCL1 (100 nM) Gi2 response, protocol #3, mAb 0.5 µg/mL [6]: 57% | residual hCCL1 (100 nM) Gi2 response, protocol #3, mAb 5 µg/mL [6]: 45%
B4: anti-CCR8 mAb 1-10 (antibody, V domains shown)
VH: EVQLQQSGPELVKPGASVKISCKTSGYTFTEYTIHWVKQSHGESLEWVGGINPNNGNTRYDQKFKGKATLTIDKSSSPAYMELRSLTSEDSAVYYCARVARSSGSGPYAMDYWGQGTSVTVSS
VL: DVVMTQTPLSLPVSLGDQASISCRCTQSLLHTNGDTYLHWYLQKPGQSPKLLIYKVSNRFSGVPDRFSGSGSGTDFTLKISRVEAEDLGVYFCSQSTHVPYTFGGGTKLEIK
notes: Murine hybridoma mAb
